# Assay results reported in paper PMC13228514 (2026).
# B1: recombinant lipoma HMGIC fusion partner-like protein 5 (LHFPL5), residues 2-219 (natural protein)
# chain: VKLLPAQEAAKIYHTNYVRNSRAVGVMWGTLTICFSVLVMALFIQPYWIGDSVSTPQAGYFGLFSYCVGNVLSSELICKGGPLDFSSIPSRAFKTAMFFVALAMFLIIGSIICFSLFFVCNTATVYKICAWMQLAAATGLMIGCLVYPDGWDSSEVRRMCGEQTGKYTLGHCTIRWAFMLAILSIGDALILSFLAFVLGYRQDKLLPDDYKADGNEEV
# B2: recombinant protocadherin-15 (PCDH15), residues 1-1462 (EC1-EC11 and part of the cytoplasmic region) (domain or fragment)
# chain: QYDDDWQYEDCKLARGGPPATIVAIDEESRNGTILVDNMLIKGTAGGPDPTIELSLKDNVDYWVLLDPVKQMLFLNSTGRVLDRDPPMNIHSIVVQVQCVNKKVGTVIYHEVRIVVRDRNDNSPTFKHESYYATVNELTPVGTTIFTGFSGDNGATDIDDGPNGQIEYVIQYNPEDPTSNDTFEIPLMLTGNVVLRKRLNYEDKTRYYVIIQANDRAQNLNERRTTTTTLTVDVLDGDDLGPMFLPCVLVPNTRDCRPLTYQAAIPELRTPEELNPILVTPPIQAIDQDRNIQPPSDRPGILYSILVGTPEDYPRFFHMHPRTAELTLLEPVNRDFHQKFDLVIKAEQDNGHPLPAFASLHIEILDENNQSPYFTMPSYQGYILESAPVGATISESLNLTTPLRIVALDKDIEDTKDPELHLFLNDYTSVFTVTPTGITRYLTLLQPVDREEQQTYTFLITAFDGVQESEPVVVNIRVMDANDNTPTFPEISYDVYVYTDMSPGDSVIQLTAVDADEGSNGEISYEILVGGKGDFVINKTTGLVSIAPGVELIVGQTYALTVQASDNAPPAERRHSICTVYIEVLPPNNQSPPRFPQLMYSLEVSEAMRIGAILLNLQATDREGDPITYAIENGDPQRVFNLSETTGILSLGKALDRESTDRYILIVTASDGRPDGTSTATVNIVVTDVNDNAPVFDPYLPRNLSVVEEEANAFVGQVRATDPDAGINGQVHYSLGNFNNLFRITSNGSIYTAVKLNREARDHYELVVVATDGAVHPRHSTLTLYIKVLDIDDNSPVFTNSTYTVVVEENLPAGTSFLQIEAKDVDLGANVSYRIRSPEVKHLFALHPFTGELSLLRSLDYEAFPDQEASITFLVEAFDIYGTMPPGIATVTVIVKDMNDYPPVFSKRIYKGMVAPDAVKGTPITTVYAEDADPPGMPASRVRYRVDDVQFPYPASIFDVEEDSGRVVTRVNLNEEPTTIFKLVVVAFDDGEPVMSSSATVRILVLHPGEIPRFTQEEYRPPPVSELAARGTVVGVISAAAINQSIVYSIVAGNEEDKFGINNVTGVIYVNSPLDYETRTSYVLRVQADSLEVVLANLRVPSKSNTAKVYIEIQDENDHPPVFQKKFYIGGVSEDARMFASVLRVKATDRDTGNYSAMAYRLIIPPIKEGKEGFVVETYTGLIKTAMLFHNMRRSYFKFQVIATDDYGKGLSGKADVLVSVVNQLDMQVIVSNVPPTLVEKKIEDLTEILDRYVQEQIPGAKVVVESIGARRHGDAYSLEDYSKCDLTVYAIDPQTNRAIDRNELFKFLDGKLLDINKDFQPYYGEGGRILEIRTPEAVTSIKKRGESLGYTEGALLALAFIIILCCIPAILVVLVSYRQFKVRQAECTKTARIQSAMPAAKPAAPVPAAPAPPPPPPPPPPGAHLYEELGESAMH
# Tests used:
# Assay in all cases: BLI; intact antibody
# anti-LHFPL5 = target: anti-LHFPL5
# 39G7 = target: 39G7
# Sequence of 39G7 (Q99PJ1 27-1462): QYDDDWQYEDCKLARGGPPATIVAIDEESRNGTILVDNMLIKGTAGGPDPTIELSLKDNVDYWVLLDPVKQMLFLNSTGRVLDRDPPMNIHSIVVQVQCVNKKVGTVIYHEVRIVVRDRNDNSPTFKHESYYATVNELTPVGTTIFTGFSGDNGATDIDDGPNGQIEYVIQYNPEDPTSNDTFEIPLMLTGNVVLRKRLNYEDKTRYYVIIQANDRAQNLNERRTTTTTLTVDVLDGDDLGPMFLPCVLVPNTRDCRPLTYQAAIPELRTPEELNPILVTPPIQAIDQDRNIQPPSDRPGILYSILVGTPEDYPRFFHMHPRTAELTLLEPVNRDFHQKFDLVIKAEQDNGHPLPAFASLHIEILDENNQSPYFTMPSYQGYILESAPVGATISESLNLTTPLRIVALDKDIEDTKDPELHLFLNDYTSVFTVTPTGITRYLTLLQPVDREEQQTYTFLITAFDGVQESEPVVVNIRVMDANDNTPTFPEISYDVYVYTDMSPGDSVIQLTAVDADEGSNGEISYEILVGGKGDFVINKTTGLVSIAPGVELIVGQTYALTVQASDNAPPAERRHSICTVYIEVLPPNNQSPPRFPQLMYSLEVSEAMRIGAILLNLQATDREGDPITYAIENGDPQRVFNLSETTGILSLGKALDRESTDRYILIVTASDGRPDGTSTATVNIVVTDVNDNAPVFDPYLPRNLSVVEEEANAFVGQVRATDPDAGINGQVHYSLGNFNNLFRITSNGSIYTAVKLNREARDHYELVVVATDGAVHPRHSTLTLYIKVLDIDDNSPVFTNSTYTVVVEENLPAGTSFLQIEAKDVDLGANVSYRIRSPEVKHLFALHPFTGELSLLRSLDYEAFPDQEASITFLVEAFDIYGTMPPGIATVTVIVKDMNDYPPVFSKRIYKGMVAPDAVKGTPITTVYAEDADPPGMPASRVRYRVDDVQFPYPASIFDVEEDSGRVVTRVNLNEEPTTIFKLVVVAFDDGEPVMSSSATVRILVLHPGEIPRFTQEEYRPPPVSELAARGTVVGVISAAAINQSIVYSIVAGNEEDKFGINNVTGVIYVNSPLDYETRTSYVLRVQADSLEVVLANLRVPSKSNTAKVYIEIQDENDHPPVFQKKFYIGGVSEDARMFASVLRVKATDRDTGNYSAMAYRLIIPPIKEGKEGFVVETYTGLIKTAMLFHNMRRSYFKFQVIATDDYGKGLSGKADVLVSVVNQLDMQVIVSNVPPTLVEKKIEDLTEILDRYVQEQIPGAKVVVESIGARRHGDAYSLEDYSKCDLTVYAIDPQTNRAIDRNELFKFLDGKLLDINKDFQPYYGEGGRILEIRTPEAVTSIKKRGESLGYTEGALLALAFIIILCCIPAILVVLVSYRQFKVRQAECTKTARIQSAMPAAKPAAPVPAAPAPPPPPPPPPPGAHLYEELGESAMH
# 8D1 = target: 8D1
# Sequence of 8D1 (Q99PJ1 27-1462): as above
Binder,Kd (anti-LHFPL5) [pM],koff (anti-LHFPL5) [s⁻¹],Kd (39G7) [pM],koff (39G7) [s⁻¹],Kd (8D1) [pM],koff (8D1) [s⁻¹]
B1,1000,5e-05,,,,
B2,,,200,2e-05,50,3e-05
